Laboratory results published in patent US20240066131A1 (Protagonist Therapeutics, Inc., priority 2020, published 2024).
Starred links: 1 amine or outer side, 2 acyl side, 3 side chain; linkers in the order of their positions; H or OH if unused. Non-standard residues stand in square brackets, D forms with d. Residues, ends and D or L forms follow the SMILES beside them. Groups on a side chain read outwards from the residue. No end group written: not given here. *: point of attachment. N_Butyl_Phe = CCCCN([C@@H](Cc1ccccc1)C(=O)[*:2])[*:1]; Ala(1H-tetrazol-5-yl) = N[C@@H](Cc1nnn[nH]1)C(=O)O; C18 diacid = O=C(O)CCCCCCCCCCCCCCCCC(=O)*; Dip = N[C@H](C(=O)O)C(c1ccccc1)c1ccccc1; γGlu = O=C(O)[C@H](CCC(=O)[*:2])N[*:1]; His(τ-Me) = Cn1cnc(C[C@H](N)C(=O)O)c1; Palmitoyl = CCCCCCCCCCCCCCCC(=O)*; Myristoyl = CCCCCCCCCCCCCC(=O)*; β3hF = N[C@H](CC(=O)O)Cc1ccccc1; NMeK = CN[C@@H](CCCCN)C(=O)O; PEG4 = NCCOCCOCCOCCOCCC(=O)O; Isovaleryl = CC(C)CC(=O)*; AEEA = NCCOCCOCC(=O)O; Propionyl = CCC(=O)*; Ahx = NCCCCCC(=O)O; βAla = NCCC(=O)O; NHPr = CCCN*

T1: human ferroportin (SLC40A1) fused in frame with GFP, stably expressed in HEK293 cells (human, UniProt Q9NP59 1-571)
T1 sequence (looked up): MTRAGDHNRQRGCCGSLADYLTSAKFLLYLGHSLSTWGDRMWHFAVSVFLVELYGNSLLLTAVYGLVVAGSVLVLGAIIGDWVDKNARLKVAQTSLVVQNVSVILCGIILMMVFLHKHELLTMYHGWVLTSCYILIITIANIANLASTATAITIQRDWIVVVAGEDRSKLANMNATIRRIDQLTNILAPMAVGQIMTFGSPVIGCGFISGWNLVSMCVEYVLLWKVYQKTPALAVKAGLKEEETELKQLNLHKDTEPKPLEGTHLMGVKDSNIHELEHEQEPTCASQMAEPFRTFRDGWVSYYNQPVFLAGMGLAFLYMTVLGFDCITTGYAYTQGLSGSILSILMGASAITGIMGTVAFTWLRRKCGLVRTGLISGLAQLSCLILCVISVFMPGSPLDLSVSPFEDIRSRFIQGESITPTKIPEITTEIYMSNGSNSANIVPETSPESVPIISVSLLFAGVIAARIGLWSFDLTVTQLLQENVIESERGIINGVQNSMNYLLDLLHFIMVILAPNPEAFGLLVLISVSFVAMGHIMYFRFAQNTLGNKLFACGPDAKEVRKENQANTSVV

T2: ferroportin (Homo sapiens, UniProt Q9NP59)
T2 sequence (Q9NP59 1-571): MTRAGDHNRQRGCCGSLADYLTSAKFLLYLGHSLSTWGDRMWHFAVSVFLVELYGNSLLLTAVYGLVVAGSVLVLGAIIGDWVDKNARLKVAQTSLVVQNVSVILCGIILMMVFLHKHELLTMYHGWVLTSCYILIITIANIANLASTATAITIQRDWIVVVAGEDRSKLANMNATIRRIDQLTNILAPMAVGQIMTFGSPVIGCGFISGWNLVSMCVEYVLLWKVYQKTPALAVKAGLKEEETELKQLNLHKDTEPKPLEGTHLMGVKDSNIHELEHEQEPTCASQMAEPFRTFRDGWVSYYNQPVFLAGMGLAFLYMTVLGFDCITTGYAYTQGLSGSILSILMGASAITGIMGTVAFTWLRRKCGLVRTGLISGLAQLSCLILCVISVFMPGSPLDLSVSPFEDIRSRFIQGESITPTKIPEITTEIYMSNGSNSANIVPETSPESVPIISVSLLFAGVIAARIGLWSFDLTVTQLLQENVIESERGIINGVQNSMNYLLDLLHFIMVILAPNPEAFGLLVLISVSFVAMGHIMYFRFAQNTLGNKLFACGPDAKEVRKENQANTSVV


molecular target: T1, human ferroportin (SLC40A1) fused in …; assay: cell-based or functional assay; settings: not given

Molecule	FPN IC50
Isovaleryl-ETHFPAIK([γGlu-Myristoyl])FEPRSKGA[dK]-NH2 [Isovaleric Acid-E-T-H-F-P-A-I-[Lys(IsoGlu_C14_acid)]-F-E-P-R-S-K-G-A-[(D)Lys]-NH2]	718 nM
Isovaleryl-[meL]TH[Dip]P[NMeK]([Ahx-Palmitoyl])-N_Butyl_Phe [Isovaleric Acid-meL-T-H-[Dpa]-P-NMe[Lys(Ahx_Palm)]-N_Butyl_Phe]	71 nM
Isovaleryl-LTH[Dip]P[NMeK]([Ahx-Palmitoyl])[N_Butyl_Phe] [Isovaleric Acid-L-T-H-[Dpa]-P-NMe[Lys(Ahx_Palm)]-N_Butyl_Phe]	62.6 nM
Cyclohexanecarboxylic_Acid-LTH[Dip]PK([Ahx-Palmitoyl])[N_Butyl_Phe] [Cyclohexanecarboxylic_Acid-L-T-H-[Dpa]-P-[Lys(Ahx_Palm)]-N_Butyl_Phe]	3300 nM
Isovaleryl-LTH[Dip]PK([AEEA-AEEA-γGlu-C18 diacid])[N_Ethyl_Nap] [Isovaleric Acid-L-T-H-[Dpa]-P-[Lys(1PEG2_1PEG2_IsoGlu_C18_Diacid)]-N_Ethyl_Nap]	1440 nM
Propionyl-LTH[Dip]PK([Ahx-Palmitoyl])[N_Butyl_Phe] [[Propionic_acid]-L-T-H-[Dpa]-P-[Lys(Ahx_Palm)]-N_Butyl_Phe]	218 nM
Octanoic_Acid-LTH[Dip]PK([Ahx-Palmitoyl])-N_Butyl_Phe [Octanoic_Acid-L-T-H-[Dpa]-P-[Lys(Ahx_Palm)]-N_Butyl_Phe]	1020 nM
Isovaleryl-LTH[Dip]P[N_Butyl_Phe] [Isovaleric Acid-L-T-H-[Dpa]-P-N_Butyl_Phe]	1040 nM

Results, then the molecule that gave them:

FPN IC50	Molecule
4490 nM	Isovaleryl-ETHFPAIK([γGlu-C12 acid])FEPRSKGAK-NH2 [Isovaleric Acid-E-T-H-F-P-A-I-[Lys(IsoGlu_C12_acid)]-F-E-P-R-S-K-G-A-K-NH2]
3310 nM	Isovaleryl-ETHFPAIK([γGlu-C10 acid])FEPRSKGAK-NH2 [Isovaleric Acid-E-T-H-F-P-A-I-[Lys(IsoGlu_C10_acid)]-F-E-P-R-S-K-G-A-K-NH2]
5730 nM	Isovaleryl-ETHFPAIK([γGlu-Myristoyl])FEPRSKG[dA]-NH2 [Isovaleric Acid-E-T-H-F-P-A-I-[Lys(IsoGlu_C14_acid)]-F-E-P-R-S-K-G-[(D)Ala]-NH2]
3680 nM	Isovaleryl-ETHFPAIK([γGlu-Myristoyl])FEPR[dS]-NH2 [Isovaleric Acid-E-T-H-F-P-A-I-[Lys(IsoGlu_C14_acid)]-F-E-P-R-[(D)Ser]-NH2]
222 nM	Isovaleryl-LTH[Dip]PK([γGlu-Palmitoyl])[N_Butyl_Phe] [Isovaleric Acid-L-T-H-[Dpa]-P-[Lys(IsoGlu_Palm)]-N_Butyl_Phe]
469 nM	Isovaleryl-LTH[Dip]PK([βAla-Palmitoyl])[N_Butyl_Phe] [Isovaleric Acid-L-T-H-[Dpa]-P-[Lys(bAla_Palm)]-N_Butyl_Phe]
3380 nM	Cyclohexanoic_Acid-LTH[Dip]PK([Ahx-Palmitoyl])[N_Butyl_Phe] [Cyclohexanoic_Acid-L-T-H-[Dpa]-P-[Lys(Ahx_Palm)]-N_Butyl_Phe]
> 3000 nM	Heptanoic_Acid-LTH[Dip]PK([Ahx-Palmitoyl])[N_Butyl_Phe] [Heptanoic_Acid-L-T-H-[Dpa]-P-[Lys(Ahx_Palm)]-N_Butyl_Phe]
> 3000 nM	Isovaleryl-LTH[Dip]K([Ahx-Palmitoyl])[N_Butyl_Phe] [Isovaleric Acid-L-T-H-[Dpa]-[Lys(Ahx_Palm)]-N_Butyl_Phe]

molecular target: T2, ferroportin; assay: FPN activity assay: internalization/degradation of ferroportin-GFP in stably transfected HEK293 cells (loss of GFP fluorescence); assay type: cell-based; settings: Table 6A; read-out: FPN EC50
Protocol: Following internalization, the ferroporin protein is degraded.
A retro inverse peptide is a peptide with a reversed sequence in all D amino acids. An example is that Hy-Glu-Thr-His-NH2 becomes Hy-DHis-DThr-DGlu-NH2. The EC50 of these reference compounds for ferroportin internalization/degradation was determined according to the FPN activity assay described above. These peptides served as control standards.

Molecule	DC50
CC[C@H](C)[C@H](NC(=O)[C@H](C)NC(=O)[C@@H]1CCCN1C(=O)[C@@H](NC(=O)[C@H](Cc1cn(C)cn1)NC(=O)[C@@H](NC(=O)[C@H](Cc1nn[nH]n1)NC(=O)CC(C)C)[C@@H](C)O)C(c1ccccc1)c1ccccc1)C(=O)N[C@@H](CCCCNC(C)=O)C(=O)N[C@H](CC(=O)N[C@H](CCCCN)C(=O)N[C@@H](C)C(N)=O)Cc1ccccc1 [compound 39] (Isovaleryl-[Ala(1H-tetrazol-5-yl)]T[His(τ-Me)][Dip]PAIK(Ac)[β3hF][dK]A-NH2)	> 3000 nM
CCCCCCCCCCCCCCCC(=O)NCCCCCC(=O)NCCCC[C@H](NC(=O)C[C@H](Cc1ccccc1)NC(=O)[C@@H](CCCCN)NC(=O)[C@@H](NC(=O)[C@H](C)NC(=O)[C@@H]1CCCN1C(=O)[C@@H](NC(=O)[C@H](Cc1c[nH]cn1)NC(=O)[C@@H](NC(=O)[C@H](CCC(=O)O)NC(=O)CC(C)C)[C@@H](C)O)C(c1ccccc1)c1ccccc1)[C@@H](C)CC)C(N)=O [compound 3] (Isovaleryl-ETH[Dip]PAI[dK][β3hF]K([Ahx-Palmitoyl])-NH2)	24.9 nM
CCCCCCCCCCCCCCCC(=O)NCCCCCC(=O)NCCCC[C@H](NC(=O)C[C@H](Cc1ccccc1)NC(=O)[C@@H](CCCCN)NC(=O)[C@@H](NC(=O)[C@H](CO)NC(=O)[C@@H]1CCCN1C(=O)[C@@H](NC(=O)[C@H](Cc1c[nH]cn1)NC(=O)[C@@H](NC(=O)[C@H](CCC(=O)O)NC(=O)CC(C)C)[C@@H](C)O)C(c1ccccc1)c1ccccc1)[C@@H](C)CC)C(N)=O [compound 20] (Isovaleryl-ETH[Dip]PSI[dK][β3hF]K([Ahx-Palmitoyl])-NH2)	46.3 nM
CCCCCCCCCCCCCCCC(=O)NCCCCCC(=O)NCCCC[C@H](NC(=O)[C@@H](NC(=O)[C@H](C)NC(=O)[C@@H]1CCCN1C(=O)[C@@H](NC(=O)[C@H](Cc1cn(C)cn1)NC(=O)[C@@H](NC(=O)[C@H](CC(C)C)NC(=O)CC(C)C)[C@@H](C)O)C(c1ccccc1)c1ccccc1)[C@@H](C)CC)C(=O)N[C@H](CC(N)=O)Cc1ccccc1 [compound 45] (Isovaleryl-LT[His(τ-Me)][Dip]PAIK([Ahx-Palmitoyl])[β3hF]-NH2)	> 3000 nM
CCCCCCCCCCCCCCCC(=O)NCCOCCOCCOCCOCCC(=O)NCCCC[C@H](NC(=O)[C@@H](NC(=O)[C@H](C)NC(=O)[C@@H]1CCCN1C(=O)[C@@H](NC(=O)[C@H](Cc1c[nH]cn1)NC(=O)[C@@H](NC(=O)[C@H](CCC(=O)O)NC(=O)CC(C)C)[C@@H](C)O)C(c1ccccc1)c1ccccc1)[C@@H](C)CC)C(=O)N[C@H](CC(N)=O)Cc1ccccc1 [compound 95] (Isovaleryl-ETH[Dip]PAIK([PEG4-Palmitoyl])[β3hF]-NH2)	32.7 nM

same assay, conditions: Table 6B; read-out: FPN IC50

Molecule	DC50
CCCCCCCCCCCCCCCC(=O)NCCCCCC(=O)NCCCC[C@H](NC(=O)C[C@H](Cc1ccccc1)NC(=O)[C@@H](CCCCN)NC(=O)[C@@H](NC(=O)[C@H](C)NC(=O)[C@@H]1CCCN1C(=O)[C@H](C)NC(=O)[C@H](Cc1c[nH]cn1)NC(=O)[C@@H](NC(=O)[C@H](CCC(=O)O)NC(=O)CC(C)C)[C@@H](C)O)[C@@H](C)CC)C(=O)N[C@H](CCCCN)C(=O)N[C@@H](C)C(N)=O [compound 151] (Isovaleryl-ETHAPAI[dK][β3hF]K([Ahx-Palmitoyl])[dK]A-NH2)	> 3000 nM

same assay, conditions: ferroportin-GFP HEK293 cells, compound incubated at least 18 hours; read-out: FPN IC50

Molecule	DC50
CCCCCCCCCCCCCCCC(=O)NCCCCCC(=O)NCCCC[C@H](NC(=O)CC(C)C)C(=O)N[C@H](C(=O)N[C@@H](Cc1c[nH]cn1)C(=O)N[C@H](C(=O)N1CCC[C@H]1C(=O)N[C@@H](C)C(=O)N[C@H](C(=O)N[C@H](CCCCN)C(=O)N[C@H](CC(N)=O)Cc1ccccc1)[C@@H](C)CC)C(c1ccccc1)c1ccccc1)[C@@H](C)O [compound 203] (Isovaleryl-K([Ahx-Palmitoyl])TH[Dip]PAI[dK][β3hF]-NH2)	654 nM
CCCNC(=O)[C@H](CCCCNC(=O)COCCOCCNC(=O)COCCOCCNC(=O)CC[C@H](NC(=O)CCCCCCCCCCCCCCCCC(=O)O)C(=O)O)NC(=O)[C@@H](NC(=O)[C@H](Cc1c[nH]cn1)NC(=O)[C@@H](NC(=O)[C@H](CC(C)C)NC(=O)CC(C)C)[C@@H](C)O)C(c1ccccc1)c1ccccc1 [compound 228] (Isovaleryl-LTH[Dip]K([AEEA-AEEA-γGlu-C18 diacid])-NHPr)	> 3000 nM
